# In PMC8964682, “Structural and biochemical characterization of in vivo assembled Lactococcus lactis CRISPR-Csm complex” (Communications Biology, 2022):
# B1: Lactococcus lactis Csm3 Asp30Ala, subunit of the LlCsm (D14N)1(D30A)3 complex (natural protein)
# chain: MKLVIEGTIVLKTGMHIGGSSDFSAIGAVASPVVRDTLTRLPLIPGSSLKGKMRYLLAKELNNGILLNEPNNDQDEILRLFGSSEKDKIRRARLKFNDIKLSNLAELETFNVSSTEVKFENTINRKTAVANPRQIERVIAGSKFDFEIFYNLDDIKEVEKDFENIKQGFDLLEFDYLGGHGTRGSGRIAFENLSVITAVGNFEKINTLNEILGA
# notes: Csm3 of the plasmid-encoded (pKLM) Type III-A CRISPR-Cas system of Lactococcus lactis, with the RNase-site mutation D30A; Csm3.1 is the Csm3 copy closest to Csm4; There are four copies in CTR-43, NTR and apo, and three in CTR-32; also called Csm3.1; Csm3.2
# B2: Lactococcus lactis Csm2 with N-terminal His6-tag, subunit of the LlCsm complex (natural protein)
# chain: TELKIGNEKVNSTNFGDFAEKAIRGINHKPFVNSKGGEQKITTSKIRGILELVNKVYNRVINTNDVELSENILADIAYIKVKIAYESGREPVVKDFIQRTAFTAAITDVMNQRTRESFLLFARYVESLIAYFKFYGGKD
# notes: Csm2 of the plasmid-encoded (pKLM) Type III-A CRISPR-Cas system of Lactococcus lactis; The csm2 gene encoded the His6-tag in all variants of LlCsm (wild type and Csm1 D14N / Csm3 D30A); Removal of the tag is not mentioned; also called LlCsm2; not shown: His6, N-terminal, kept
# What was measured:
# [1] = target: the molecule itself; test: cryo-EM structure; co-purified LlCsm (Csm1 D14N, Csm3 D30A)-crRNA incubated with NTR at 1:2, 37 °C, 60 min, then SEC; 3.4 Å
# [2] = target: the molecule itself; test: cryo-EM structure; co-purified LlCsm (Csm1 D14N, Csm3 D30A)-crRNA incubated with CTR at 1:2, 37 °C, 60 min, then SEC; no ATP; two classes, CTR-43 (3.0 Å) and CTR-32 (3.3 Å)
Protein,stoichiometry N [1],stoichiometry N [2]
B1,4,3
B2,3,2
